In publication PMC2597655:

Key:
[1] = biological target: DNA polymerase beta I260Q (UniProt P06766 1-335, I260Q); assay: EMSA
DNA polymerase beta WT = DNA polymerase beta WT (UniProt P06766 1-335); assay: EMSA

B1: CII5T A:A (5 nt gap, mispaired primer terminus) (dsDNA)
DNA 1: TTGCGACTTATCAACGCCCACAA
DNA 2: GCTGTCTTCTCAGTTTC
DNA 3: GAAACTGAGAAGACAGCTACTGATGTGGGCGTTGATAAGTCGCAA
modifications: 5'-phosphate on downstream oligo and template
Kd [1]: 2 nM | Kd (DNA polymerase beta WT): 6 nM
